No end group written: not given here.

The results in this text go back to patent US20040122214A1 (TRIMERIS, published 2004).

The target of test [1] is gp41 of HIV-1 strain sensitive to SEQ ID NO:114 peptide (HIV-1). The test can be described thus: cell-based or functional assay.
For test [2], the target named is gp41 of HIV-1 strain resistant to SEQ ID NO:114 peptide (HIV-1). The test can be described thus: cell-based or functional assay.

B1: conjugate comprising two molecules of SEQ ID NO:114 operably bound to PEG 6 (other)
peptide: {PEG‑6 diacid}-LTWQEWDREINNYTSLIYSLIEESQNQQEENEQELL
modifications: not fully specified; also: dimer: two peptides bound to PEG-6 diacid via N-termini
Turning to B1, in test [1], the “IC50, in vitro infectivity assay” value was determined as 0.016 µg/mL and the “IC90, in vitro infectivity assay” value amounted to 0.169 µg/mL. In test [2], the “IC50, in vitro infectivity assay” value came to 0.15 µg/mL.

B2: peptide comprising SEQ ID NO:114, synthetic peptide alone (peptide)
peptide: LTWQEWDREINNYTSLIYSLIEESQNQQEENEQELL
For the molecule B2, in test [1], the “IC50, in vitro infectivity assay” value turned out to be 0.005 µg/mL and the “IC90, in vitro infectivity assay” value is 0.034 µg/mL. Also, in test [2], the “IC50, in vitro infectivity assay” value was 2.4 µg/mL and the “IC90, in vitro infectivity assay” value was above 20 µg/mL.
